System: MS2 coat protein
Assay: apparent KD of MS2 coat protein; designed switch direction (-1 OFF switch, 1 ON switch): -1; higher = weaker reporter binding
Summary of the method: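 Stalled E. coli RNA polymerase transcribed designed RNA switches on Illumina chips, which were then titrated with SNAP-549-labelled MS2 coat protein, doubling from 0.7 or 1.5 nM to 3 µM. Steps lasted from 0.8–1.5 h at the lowest concentration to 10–20 min at the highest. The apparent KD is each design's median over clusters of curve-fitted normalised fluorescence.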

[1] = Eterna round: R95, input ligand: FMN 200 uM
[2] = Eterna round: R95, input ligand: microRNA oligo, concentration not stated
[3] = Eterna round: R95, input ligand: none
[4] = input ligand: microRNA oligo, concentration not stated

Sequence	apparent KD of MS2 coat protein [1] [nM]	apparent KD of MS2 coat protein [2] [nM]	apparent KD of MS2 coat protein [3] [nM]	apparent KD of MS2 coat protein (input ligand: FMN 200 uM) [nM]	apparent KD of MS2 coat protein (input ligand: none) [nM]	apparent KD of MS2 coat protein [4] [nM]
UAUUAGUGAGGAUAUGGUAUAGAUAAGAUGAUGAAAGAACUCCAGAAGGCACAUGAGGAUCACCCAUGUAGUAG [JL-ex4-2.08 Jieux mod] (puzzle: Exclusion 4)	20.4	23.7	20.9			
UAUAGACAUGAGGAUCACCCAUGUGAGGAUAUGUACAACAACAAGCCGGAAGCGGAAUACAGAAGGCACAAAUA [JR_Exclusion1_Sub029] (puzzle: Exclusion 1)	36.8	35.7	51.4			
ACAAGCUUUUUGCAUCAAGCAUUAAAGUCUGUGAUCGUAACAUGAGGAUCACCCAUGUAAGUUUUAUGACGUCUUAU [JR_SV3TOV2_Sub096] (puzzle: Sensor v3, turn-off variant 2)	24.8	39.8	25.3			
GGACAUAAAGUCAGGAUAUUAAGGCGAACAAGCGAUGAGAAGGGACAUGAGGAUCACCCAUGUGAUUCGCAUCA [Raerce] (Eterna round: R97, puzzle: Brourd's mod of Exclusion 4)				32.7	24.1	
AGUACAUGAGGAUCACCCAUGUCAGUUAUCAAUGGCACGCCUAAGGAUAUUGAGCGUCAAAGGCUCAAGAAGGUAGCUUUAUGC [Eternabot solution 12] (Eterna round: R96, puzzle: Exclusion NG 3)				13.7	25.6	16.7
GAGGAGCAAGGAUAUACGAGGAGAGGGAAGAGAGGAGAGAGACAUGAGGAUCACCCAUGUAGAAGGUGCAAGGG [JR_Exclu2_Sub093] (puzzle: Exclusion 2)	116	131	180			
GGCAUGCAAGGAUAUACUUACAGUGAUGUUCGAAUAAGUCUACUUGAGGAUCACCCAAGUAGAAGGUGCAUGCC [Exclusion 2 (Mod3.1 JL EX2 4.74 Vienna UCT mod of Mamaed)] (Eterna round: R97, puzzle: Exclusion 2)				62.8	16	
GCAGCUAGUUCAGGAUAUCAGCACGUGUAGUGCUGAGAAGGGAACAUGAGGAUCACCCAUGUGAUCAAUGCUGCAAUUUUAAUU [ENG1/12-A3] (Eterna round: R96, puzzle: Exclusion NG 1)				780	2260	461
CGUUGUAUAGGAUAUACAUGAGGAUCACCCAUGUGAAAUUAUAGUGAGGAAAUGAAAAGUAGAAGGGUAUGACA [Mod of Mat 7 - Jieux - Exclusion 3] (Eterna round: R97, puzzle: Exclusion 3)				35.5	45.3	
GUCUCGUGAGGAUAUGACGCUACUUUUUUGUUUUAGUAGAGUCAGAAGGCACAUGAGGAUCACCCAUGUGAUUC [Ex4 - 3 - 4] (puzzle: Exclusion 4)		56				
CUUUUGUGAGGAUAUUAGUAGUAAAUGAAUAAAAUUAUUACUAAGAAGGCACAUGAGGAUCACCCAUGUUCCUC [Mat - Exclusion 4 - Eli Mod - D1] (Eterna round: R97, puzzle: Exclusion 4)				393	54.4	
AGUCUGCGAGGAUAUACAUGAGGAUCACCCAUGUGCGAGAUACUAGUGAGGUCGAUUGGUAGAAGGCGCGGACA [Mat - Exclusion 3 - Mod of JL D86] (puzzle: Exclusion 3)		84.5				
GAAUAGGCAGGAUAUACAUGAGGAUCACCCAUGUGCCGGCGAAAGGUACGUUCGAAAGGUAGAAGGGCCUAAAC [ChP 13.04.2015 #7] (puzzle: Exclusion 3)	151	43.8	48.9			
UUGGAACAUGAGGAUCACCCAUGUCAGGAUAUUCCAAAAUCGUCGAAAGACGAUAACAGAAGAAGGGACAUUAG [Fiskxlusion 9 - Jieux - Exclusion 1] (Eterna round: R97, puzzle: Exclusion 1)				124	80.2	
GAUUGAGAGCAGGAUAUAUUCCUGAUGUAUGAAGUAGAAGGGCUCACAUGAGGAUCACCCAUGUGAUCCUGAAU [JL Dibri mod 17 mod] (Eterna round: R97, puzzle: Exclusion 6)				15.3	14.3	
GCAGUAUGAGUUAGGAUAUGAUGAUUUAAAAUAAAUCAGAAGGAACUUGAGGAUCACCCAAGUAAAGAAUUGGU [JR_BMEx4_Sub071] (Eterna round: R97, puzzle: Brourd's mod of Exclusion 4)				25.3	22.1	
CUUUCGUCUGUGGGUGGUGACAUGAGGAUCACCCAUGUUUUGCUCGUUUUGUCUUGGGCUCGGCGCCCGGGUUCGGG [-25.2, -46.4, A 8%] (Eterna round: R97, puzzle: Sensor, turn-off variant 1)				467	872	
CUGGUCCGAGGAUAUAUUAAGUGAAACAUGAGGAUCACCCAUGUUAUUUAAUGGAAGUAAAUAGAAGGCGGACUAG [Mat - Exclusion 5 - JL mod - D54] (puzzle: Exclusion 5)	38.7	48.8	43.5			
GCUGCACAUGUAGGAUAUCUGCACGUGUAGUGCAGAGAAGGACAUGAGGAUCACCCAUGUAGAUCAGCAGCAAUUAAUUUAAUU [ENG1/6-A2] (Eterna round: R96, puzzle: Exclusion NG 1)				150	242	273
GGACCACAUGAGGAUCACCCAUGUCAGGAUAUGACGGCGUCGGCGAAAGCGGAGGCGGUCAGAAGGGACGGAAA [AK-MS2ROC-r4-exclusion1-9.0] (Eterna round: R97, puzzle: Exclusion 1)				84.6	34	
GGUCGGCGAGGAUAUACAUGAGGAUCACCCAUGUGAUAGAGUGCACGCGUACGUGUAUGUAGAAGGCGCUGACG [JL-ex3-3.29 salish99 mod] (puzzle: Exclusion 3)	160	34.2	66			
GUGGUACAUGAGGAUCACCCAUGUCAGGAUAUCGUGUGUUUUUUUUCGGCCGCGCGUGCGAGAAGGGACGUCUU (puzzle: Exclusion 1)		17.3				
GGAUCUACUGAGGAUAUUAUAUCACCCGACUGAUAAGAAGGCAGUACAUGAGGAUCACCCAUGUGGGUAGCCAU [Polaris8] (Eterna round: R97, puzzle: Exclusion 6)				64.3	34.8	
UACAUGAGGAUCACCCAUGUUUUGUCGUGUAUGGUAUUUAUCUAGGAUAUCAAUCUAAUUAUUUAUGAGAAGGAGAAUAUUAAU [JMF's solution 50] (Eterna round: R96, puzzle: Exclusion NG 3)				47.9	42.4	31.2
ACAUGAGGAUCACCCAUGUCAGGCGGGUCCACUCCGGCUGUUGAGGAUAUAGCCCGGUAUCCGCGCUAGAAGGUGAGGGCCGGC [Aenatbe mod 25] (Eterna round: R96, puzzle: Exclusion NG 3)				23.1	24.1	18.4

— the supplement of paper PMC9170038
